Experimental data taken from patent publication EP2784083A1 (Charité - Universitätsmedizin Berlin, dated 2014).
Changes are numbered by the printed parent chain. Numbers in names are those of the source.

T1: murine Bmpr2 (murine, UniProt O35607 27-1038)
T1 sequence (looked up): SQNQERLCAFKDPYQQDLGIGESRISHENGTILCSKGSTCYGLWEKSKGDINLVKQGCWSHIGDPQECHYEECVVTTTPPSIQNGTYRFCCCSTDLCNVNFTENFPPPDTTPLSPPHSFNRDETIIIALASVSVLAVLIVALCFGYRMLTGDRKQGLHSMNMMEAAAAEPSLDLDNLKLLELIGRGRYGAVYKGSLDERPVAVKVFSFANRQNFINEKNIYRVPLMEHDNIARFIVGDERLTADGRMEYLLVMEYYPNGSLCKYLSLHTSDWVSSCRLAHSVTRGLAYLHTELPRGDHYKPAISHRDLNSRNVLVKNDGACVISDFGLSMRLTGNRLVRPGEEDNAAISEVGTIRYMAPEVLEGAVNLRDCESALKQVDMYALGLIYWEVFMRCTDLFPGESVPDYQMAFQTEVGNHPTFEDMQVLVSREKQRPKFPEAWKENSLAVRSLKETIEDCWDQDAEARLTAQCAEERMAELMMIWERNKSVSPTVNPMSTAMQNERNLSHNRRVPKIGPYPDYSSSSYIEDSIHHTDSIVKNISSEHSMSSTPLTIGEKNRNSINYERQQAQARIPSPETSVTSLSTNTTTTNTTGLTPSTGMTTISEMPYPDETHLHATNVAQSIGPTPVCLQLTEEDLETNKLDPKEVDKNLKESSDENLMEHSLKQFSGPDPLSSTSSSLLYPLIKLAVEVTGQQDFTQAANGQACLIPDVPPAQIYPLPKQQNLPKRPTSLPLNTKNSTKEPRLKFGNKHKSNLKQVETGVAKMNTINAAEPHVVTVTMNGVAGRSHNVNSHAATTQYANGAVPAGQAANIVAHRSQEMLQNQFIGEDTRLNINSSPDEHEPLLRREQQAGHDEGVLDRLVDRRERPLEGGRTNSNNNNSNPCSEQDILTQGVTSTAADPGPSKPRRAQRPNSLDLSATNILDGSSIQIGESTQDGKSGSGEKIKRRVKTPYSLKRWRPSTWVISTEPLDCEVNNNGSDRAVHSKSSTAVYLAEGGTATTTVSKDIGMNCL

T2: murine Tβr1 (murine, UniProt Q64729 30-503)
T2 sequence (looked up): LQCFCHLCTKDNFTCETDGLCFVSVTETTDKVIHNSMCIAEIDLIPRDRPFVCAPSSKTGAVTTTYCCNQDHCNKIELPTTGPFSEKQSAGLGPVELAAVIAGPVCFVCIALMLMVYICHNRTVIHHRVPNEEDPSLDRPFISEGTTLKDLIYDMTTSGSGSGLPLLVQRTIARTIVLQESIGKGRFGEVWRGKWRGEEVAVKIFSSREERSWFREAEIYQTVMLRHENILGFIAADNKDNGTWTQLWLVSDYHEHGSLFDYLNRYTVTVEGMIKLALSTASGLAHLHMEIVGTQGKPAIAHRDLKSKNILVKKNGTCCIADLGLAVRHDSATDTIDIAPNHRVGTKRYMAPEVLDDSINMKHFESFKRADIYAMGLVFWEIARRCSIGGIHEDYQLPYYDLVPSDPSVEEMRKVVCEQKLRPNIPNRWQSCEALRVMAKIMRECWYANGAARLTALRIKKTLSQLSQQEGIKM

T3: murine Acvr1 c (murine, UniProt Q8K348 26-493)
T3 sequence (looked up): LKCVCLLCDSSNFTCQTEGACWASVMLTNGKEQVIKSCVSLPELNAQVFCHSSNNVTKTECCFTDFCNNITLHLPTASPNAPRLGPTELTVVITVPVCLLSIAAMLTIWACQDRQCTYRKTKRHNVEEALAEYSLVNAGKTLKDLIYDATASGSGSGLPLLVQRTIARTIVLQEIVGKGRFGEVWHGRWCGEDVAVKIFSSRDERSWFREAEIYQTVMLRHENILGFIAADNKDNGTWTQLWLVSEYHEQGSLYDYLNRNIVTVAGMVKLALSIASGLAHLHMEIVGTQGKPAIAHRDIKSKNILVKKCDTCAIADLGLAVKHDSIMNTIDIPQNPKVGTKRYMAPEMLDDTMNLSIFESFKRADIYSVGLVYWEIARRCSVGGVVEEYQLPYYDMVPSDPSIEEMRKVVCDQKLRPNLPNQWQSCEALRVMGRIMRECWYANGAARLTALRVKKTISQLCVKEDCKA

T4: murine Acvrl1 (murine, UniProt Q61288 23-502)
T4 sequence (looked up): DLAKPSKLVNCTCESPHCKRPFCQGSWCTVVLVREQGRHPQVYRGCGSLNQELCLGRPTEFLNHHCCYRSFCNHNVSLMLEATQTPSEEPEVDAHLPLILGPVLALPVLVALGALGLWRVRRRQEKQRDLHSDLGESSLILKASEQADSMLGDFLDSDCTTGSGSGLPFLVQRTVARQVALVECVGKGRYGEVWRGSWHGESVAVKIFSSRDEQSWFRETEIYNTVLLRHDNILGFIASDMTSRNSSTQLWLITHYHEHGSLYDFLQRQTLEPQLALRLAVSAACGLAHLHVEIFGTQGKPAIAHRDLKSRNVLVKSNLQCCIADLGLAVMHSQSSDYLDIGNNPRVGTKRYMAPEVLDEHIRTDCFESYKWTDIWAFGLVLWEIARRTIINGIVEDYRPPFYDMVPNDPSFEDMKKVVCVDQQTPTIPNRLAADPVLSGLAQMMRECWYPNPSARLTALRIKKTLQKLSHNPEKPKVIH

T5: murine Acvr1 (murine, UniProt P37172 21-509)
T5 sequence (looked up): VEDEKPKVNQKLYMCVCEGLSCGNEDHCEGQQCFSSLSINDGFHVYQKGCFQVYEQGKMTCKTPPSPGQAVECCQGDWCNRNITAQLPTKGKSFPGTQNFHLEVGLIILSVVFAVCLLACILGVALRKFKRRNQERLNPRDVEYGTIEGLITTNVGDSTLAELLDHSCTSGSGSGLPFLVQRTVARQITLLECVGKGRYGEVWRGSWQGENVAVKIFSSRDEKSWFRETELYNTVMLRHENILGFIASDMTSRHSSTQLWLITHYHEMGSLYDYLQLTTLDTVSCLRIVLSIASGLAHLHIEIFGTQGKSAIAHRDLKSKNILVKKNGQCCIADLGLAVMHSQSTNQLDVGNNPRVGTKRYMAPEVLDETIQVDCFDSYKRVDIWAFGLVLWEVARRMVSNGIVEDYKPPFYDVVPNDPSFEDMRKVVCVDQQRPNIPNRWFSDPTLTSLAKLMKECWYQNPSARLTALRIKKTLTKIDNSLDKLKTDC

T6: murine Actr1 b (murine, UniProt Q61271 24-505)
T6 sequence (looked up): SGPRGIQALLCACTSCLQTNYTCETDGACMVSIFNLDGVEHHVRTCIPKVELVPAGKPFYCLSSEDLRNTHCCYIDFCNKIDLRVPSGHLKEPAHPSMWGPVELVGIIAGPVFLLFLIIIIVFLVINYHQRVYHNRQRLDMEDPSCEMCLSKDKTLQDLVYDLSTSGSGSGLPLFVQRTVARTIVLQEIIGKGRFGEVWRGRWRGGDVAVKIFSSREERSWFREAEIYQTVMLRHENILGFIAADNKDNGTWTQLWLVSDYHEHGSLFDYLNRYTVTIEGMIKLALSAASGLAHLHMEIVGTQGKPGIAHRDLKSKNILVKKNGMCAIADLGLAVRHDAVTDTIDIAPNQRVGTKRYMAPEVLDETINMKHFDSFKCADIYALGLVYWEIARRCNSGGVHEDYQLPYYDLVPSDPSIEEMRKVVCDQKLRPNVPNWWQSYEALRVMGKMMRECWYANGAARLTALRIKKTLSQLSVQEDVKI

B1: wildtype human BMP2 (ligand)
chain: QAKHKQRKRLKSSCKRHPLYVDFSDVGWNDWIVAPPGYHAFYCHGECPFPLADHLNSTNHAIVQTLVNSVNSKIPKACCVPTELSAISMLYLDENEKVVLKNYQDMVVEGCGCR
B2: hBMP2(N341 V-N384W) (ligand)
chain: B1 chain with N59V, N102W

Experiments:
Experiment in all cases: cell-based or functional assay
[1] = molecular target: wildtype human BMP2 (human) (UniProt P12643)
[2] = molecular target: hBMP2(N341 V-N384W) (human) (UniProt P12643)
murine Acvr2b = murine Acvr2b (murine, UniProt P27040 19-536)
murine Bmpr2 = molecular target: T1, murine Bmpr2
murine Acvr2a = murine Acvr2a (murine, UniProt P27038 20-513)
murine Tβr1 = molecular target: T2, murine Tβr1
murine Acvr1 c = molecular target: T3, murine Acvr1 c
murine Bmpr1b = murine Bmpr1b (murine, UniProt P36898 14-502)
murine Acvrl1 = molecular target: T4, murine Acvrl1
murine Acvr1 = molecular target: T5, murine Acvr1
murine Actr1 b = molecular target: T6, murine Actr1 b
murine Bmpr1a = murine Bmpr1a (murine, UniProt P36895 24-532)
Chain of murine Bmpr1a (P36895 24-532): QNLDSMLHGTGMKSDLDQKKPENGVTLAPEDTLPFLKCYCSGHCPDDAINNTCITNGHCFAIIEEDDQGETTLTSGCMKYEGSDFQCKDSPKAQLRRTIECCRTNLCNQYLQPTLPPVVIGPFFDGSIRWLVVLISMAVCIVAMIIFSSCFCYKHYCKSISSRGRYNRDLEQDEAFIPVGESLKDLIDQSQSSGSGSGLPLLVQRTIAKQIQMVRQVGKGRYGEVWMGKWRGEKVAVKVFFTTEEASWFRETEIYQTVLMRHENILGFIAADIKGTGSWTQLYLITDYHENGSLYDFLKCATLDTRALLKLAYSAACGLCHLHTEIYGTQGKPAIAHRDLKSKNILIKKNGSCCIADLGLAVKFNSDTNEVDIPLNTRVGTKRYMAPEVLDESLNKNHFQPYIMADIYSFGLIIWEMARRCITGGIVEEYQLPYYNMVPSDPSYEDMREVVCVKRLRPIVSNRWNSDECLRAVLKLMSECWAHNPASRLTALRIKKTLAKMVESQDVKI

Chain of murine Bmpr1b (P36898 14-502): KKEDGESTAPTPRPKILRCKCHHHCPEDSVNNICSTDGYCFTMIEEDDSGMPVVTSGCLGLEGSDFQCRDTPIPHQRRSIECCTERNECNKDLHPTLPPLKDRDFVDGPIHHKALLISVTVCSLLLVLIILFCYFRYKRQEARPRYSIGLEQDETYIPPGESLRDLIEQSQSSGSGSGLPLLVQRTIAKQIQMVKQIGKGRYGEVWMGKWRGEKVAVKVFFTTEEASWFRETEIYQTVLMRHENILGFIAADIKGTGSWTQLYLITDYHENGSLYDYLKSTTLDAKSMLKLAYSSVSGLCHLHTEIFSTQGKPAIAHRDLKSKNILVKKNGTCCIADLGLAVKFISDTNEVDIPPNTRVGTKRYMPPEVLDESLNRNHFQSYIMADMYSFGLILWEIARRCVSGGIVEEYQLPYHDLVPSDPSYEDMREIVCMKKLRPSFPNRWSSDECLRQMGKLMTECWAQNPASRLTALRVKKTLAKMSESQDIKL
Chain of murine Acvr2b (P27040 19-536): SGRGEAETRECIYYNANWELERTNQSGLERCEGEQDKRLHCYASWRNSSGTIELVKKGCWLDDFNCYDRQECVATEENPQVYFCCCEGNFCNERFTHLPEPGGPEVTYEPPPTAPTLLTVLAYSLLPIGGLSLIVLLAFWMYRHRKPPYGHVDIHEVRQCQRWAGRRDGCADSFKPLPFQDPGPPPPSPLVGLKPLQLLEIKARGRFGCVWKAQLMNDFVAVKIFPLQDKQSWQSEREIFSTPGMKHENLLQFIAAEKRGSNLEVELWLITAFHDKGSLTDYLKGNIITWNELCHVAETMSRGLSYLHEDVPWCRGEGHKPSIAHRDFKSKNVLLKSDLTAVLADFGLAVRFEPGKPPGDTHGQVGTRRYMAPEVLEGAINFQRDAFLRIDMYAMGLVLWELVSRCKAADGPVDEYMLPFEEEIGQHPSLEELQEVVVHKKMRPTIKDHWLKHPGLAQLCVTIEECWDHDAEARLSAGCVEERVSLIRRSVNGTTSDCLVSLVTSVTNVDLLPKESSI
Chain of murine Acvr2a (P27038 20-513): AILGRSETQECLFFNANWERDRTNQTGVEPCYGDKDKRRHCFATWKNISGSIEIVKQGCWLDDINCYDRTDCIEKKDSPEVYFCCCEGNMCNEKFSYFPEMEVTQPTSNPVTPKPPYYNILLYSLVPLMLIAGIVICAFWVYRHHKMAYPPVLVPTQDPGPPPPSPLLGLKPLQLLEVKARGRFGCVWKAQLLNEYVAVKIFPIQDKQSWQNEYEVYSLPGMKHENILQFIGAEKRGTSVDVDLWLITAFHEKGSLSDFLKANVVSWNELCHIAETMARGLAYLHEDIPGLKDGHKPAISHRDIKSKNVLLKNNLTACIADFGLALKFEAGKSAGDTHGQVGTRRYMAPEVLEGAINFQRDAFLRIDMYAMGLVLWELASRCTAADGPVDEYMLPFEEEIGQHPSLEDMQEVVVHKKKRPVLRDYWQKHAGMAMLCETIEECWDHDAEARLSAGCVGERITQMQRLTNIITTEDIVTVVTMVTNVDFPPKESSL

| Molecule | rel. luciferase activity (SBE reporter, NIH3T3 cells) at 5x surplus of co-transfected NOG DNA (rel. luciferase activity) [1] | rel. luciferase activity (SBE reporter, NIH3T3 cells) at 50x surplus of co-transfected NOG DNA (rel. luciferase activity) [1] | NOG DNA surplus that blocks SBE reporter activation to control levels, NIH3T3 cells (fold surplus of transfected NOG-DNA) [2] | rel. luciferase activity (SBE reporter, NIH3T3 cells) at 5x surplus of co-transfected NOG DNA (rel. luciferase activity) [2] | rel. luciferase activity (SBE reporter, NIH3T3 cells) at 50x surplus of co-transfected NOG DNA (rel. luciferase activity) [2] | chondrogenic potential in chicken micromass culture (Alcian blue), NOG co-expressed ([2]; scale: % of the wild-type activity in the absence of its antagonist) | rel. luciferase activity (SBE reporter, COS-1 cells) (murine Acvr2b) [rel. luciferase activity] | rel. luciferase activity (SBE reporter, COS-1 cells) (murine Bmpr2) [rel. luciferase activity] | rel. luciferase activity (SBE reporter, COS-1 cells) (murine Acvr2a) [rel. luciferase activity] | rel. luciferase activity (SBE reporter, COS-1 cells) (murine Tβr1) [rel. luciferase activity] | rel. luciferase activity (SBE reporter, COS-1 cells) (murine Acvr1 c) [rel. luciferase activity] | rel. luciferase activity (SBE reporter, COS-1 cells) (murine Bmpr1b) [rel. luciferase activity] | rel. luciferase activity (SBE reporter, COS-1 cells) (murine Acvrl1) [rel. luciferase activity] | rel. luciferase activity (SBE reporter, COS-1 cells) (murine Acvr1) [rel. luciferase activity] | rel. luciferase activity (SBE reporter, COS-1 cells) (murine Actr1 b) [rel. luciferase activity] | rel. luciferase activity (SBE reporter, COS-1 cells) (murine Bmpr1a) [rel. luciferase activity] |
| --- | --- | --- | --- | --- | --- | --- | --- | --- | --- | --- | --- | --- | --- | --- | --- | --- |
| human NOG (Noggin) (from UniProt Q13253 28-232) | 1.53 | 1.51 | 500 | 9.31 | 7.11 | > 100 | – | – | – | – | – | – | – | – | – | – |
| B1 | – | – | – | – | – | – | 171 | 268 | 57.4 | 2.44 | 2.06 | 37.5 | 6.41 | 1.63 | 2.81 | – |
| B2 | – | – | – | – | – | – | 156 | 262 | 46.7 | 2.52 | 2.75 | 28.8 | 7.57 | 1.23 | 3.4 | 24.6 |
